Assay results published in paper PMC5316958, “A combination of mutational and computational scanning guides the design of an artificial ligand-binding controlled lipase” (Scientific Reports, 2017).
Where “and” joins values, the source holds several entries; their conditions need not be identical. Equal values may be shown once.

How the values were obtained:
[1] = biological target: T1, Bacillus subtilis lipase A (BsLA) (Bacillus subtilis, UniProt P37957); experiment: hydrolysis of p-NPB by purified enzyme, p-nitrophenolate release at […] nm (specific activity); assay type: biochemical
T1 construct: gene estA; purified wild-type BsLA

[2] = biological target: the molecule itself; experiment: AUC; sedimentation velocity, CitAP-BsLA 0.5 mg/ml, 10 mM glycine buffer pH 10, 10 mM NaCl, with or without 1 mM sodium citrate, 25 °C, 40 krpm; c(s) with Bayesian prior, discrete species of known mass; monomer, dimer and higher oligomers
SAXS = biological target: the molecule itself; experiment: SAXS

CCCC(=O)Oc1ccc([N+](=O)[O-])cc1 [p-nitrophenylbutyrate]
hydrolysis of p-NPB by purified enzyme, p-nitrophenolate release at 410 nm (spec) [1]: 181 ± 3 U/mg

B1: CitAP-BsLA (enzyme)
chain: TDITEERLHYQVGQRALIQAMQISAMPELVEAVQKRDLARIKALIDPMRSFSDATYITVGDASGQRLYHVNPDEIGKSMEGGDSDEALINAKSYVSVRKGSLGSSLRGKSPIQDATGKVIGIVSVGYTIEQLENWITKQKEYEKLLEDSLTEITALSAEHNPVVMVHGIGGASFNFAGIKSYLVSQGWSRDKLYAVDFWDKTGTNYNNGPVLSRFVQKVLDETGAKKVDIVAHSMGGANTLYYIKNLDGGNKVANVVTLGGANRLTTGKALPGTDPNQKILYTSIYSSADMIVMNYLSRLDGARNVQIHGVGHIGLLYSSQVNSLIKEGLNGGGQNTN
stoichiometry N [2]: 2 | Kd (SAXS): 24 µM and 29 µM
